Laboratory results: doi:10.1101/2021.01.13.426456
pKd: −log10 of the molar value.

Key:
[1] = target: Bin1b SH3 domain (zebrafish); experiment: ITC
[2] = target: Full length zebrafish Cavin4b (zebrafish) (UniProt Q5PQY9); experiment: ITC

Substance: Cavin4b PRD peptide
- pKd [1]: 4.21

Substance: Chikungunya virus (CHIKV) proline-rich peptide
- pKd [1]: 7.05

Substance: Bin1b SH3 domain (domain or fragment)
- pKd [2]: 4.25
